This passage reports Kd, koff and kon results from patent publication US20180230218A1 (IMMUNOGEN, published 2018).

Assay [1] concerns the target T1, Human cMet-ECD-his (human, UniProt P08581 25-932).
T1 construct: extracellular domain; Soluble analyte in the ForteBio assay; also called hu cMet; soluble recombinant hu cMet protein; not shown: histidine-containing peptide (His tag)
Description: BLI (ForteBio), antibody on anti-hIgG Fc capture biosensor, soluble cMet-ECD-his 2.6-30 nM, 1:1 fit.

The target in assay [2] is T2, Cyno cMet-ECD-his (cynomolgus monkey).
T2 construct: extracellular domain; Soluble analyte in the ForteBio assay; also called cynomolgus monkey cMet
Described as above.
Description: Briefly, each antibody was bound and immobilized onto an anti-hIgG Fc Capture biosensor and then incubated in the presence of different concentrations (2.6-30 nM) of His-tagged soluble cMet. The kinetics of binding were determined via ForteBio analysis binding using a 1:1 binding fit model.

T1 sequence (P08581 25-932): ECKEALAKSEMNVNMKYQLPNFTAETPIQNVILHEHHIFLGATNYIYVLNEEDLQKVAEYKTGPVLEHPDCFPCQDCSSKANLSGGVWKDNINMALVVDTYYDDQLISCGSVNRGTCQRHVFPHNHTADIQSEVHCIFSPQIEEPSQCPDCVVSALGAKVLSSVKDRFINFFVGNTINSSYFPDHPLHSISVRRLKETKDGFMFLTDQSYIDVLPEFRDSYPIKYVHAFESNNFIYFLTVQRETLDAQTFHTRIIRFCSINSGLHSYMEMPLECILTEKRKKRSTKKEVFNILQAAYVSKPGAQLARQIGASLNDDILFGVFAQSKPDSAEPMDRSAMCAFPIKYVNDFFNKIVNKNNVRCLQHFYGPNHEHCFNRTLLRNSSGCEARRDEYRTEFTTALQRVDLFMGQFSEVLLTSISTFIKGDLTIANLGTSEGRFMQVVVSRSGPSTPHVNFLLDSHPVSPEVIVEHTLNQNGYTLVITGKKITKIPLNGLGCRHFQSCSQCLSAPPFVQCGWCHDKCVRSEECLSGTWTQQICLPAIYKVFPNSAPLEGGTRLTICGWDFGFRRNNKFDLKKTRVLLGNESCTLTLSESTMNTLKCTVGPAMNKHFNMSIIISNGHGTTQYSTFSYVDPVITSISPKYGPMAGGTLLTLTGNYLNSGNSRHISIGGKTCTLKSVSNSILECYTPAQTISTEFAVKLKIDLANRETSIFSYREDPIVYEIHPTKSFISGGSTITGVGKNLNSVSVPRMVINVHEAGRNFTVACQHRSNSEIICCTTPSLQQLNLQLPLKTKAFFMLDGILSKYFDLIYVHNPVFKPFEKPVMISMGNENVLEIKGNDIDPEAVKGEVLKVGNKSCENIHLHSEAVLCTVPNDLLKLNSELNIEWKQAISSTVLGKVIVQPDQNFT

B1: hucMet27Gv1.3 (antibody, human IgG1, kappa)
light: EIVLTQSPATLSLSPGERATLSCRASESVDSYGNSFIHWYQQKPGQAPRLLIYRASNLESGIPARFSGSGSGTDFTLTISSLEPEDFAVYYCQQSNEEPLTFGQGTKVELKRTVAAPSVFIFPPSDEQLKSGTASVVCLLNNFYPREAKVQWKVDNALQSGNSQESVTEQDSKDSTYSLSSTLTLSKADYEKHKVYACEVTHQGLSSPVTKSFNRGEC
heavy: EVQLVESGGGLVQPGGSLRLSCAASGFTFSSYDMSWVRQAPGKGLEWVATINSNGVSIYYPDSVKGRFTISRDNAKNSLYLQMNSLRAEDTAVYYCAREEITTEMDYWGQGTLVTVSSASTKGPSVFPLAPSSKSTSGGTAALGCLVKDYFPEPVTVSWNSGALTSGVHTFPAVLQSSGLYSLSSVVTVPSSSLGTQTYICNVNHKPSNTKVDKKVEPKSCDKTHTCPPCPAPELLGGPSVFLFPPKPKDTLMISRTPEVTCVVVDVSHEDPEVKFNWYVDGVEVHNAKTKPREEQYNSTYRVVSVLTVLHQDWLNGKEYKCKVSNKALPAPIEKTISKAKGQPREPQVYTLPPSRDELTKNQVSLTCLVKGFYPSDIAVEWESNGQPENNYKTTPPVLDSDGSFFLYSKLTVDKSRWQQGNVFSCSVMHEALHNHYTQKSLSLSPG
notes: CDR-grafted cMET-27 with one S49A backmutation in VH; preferred construct
What is called Kd is the equilibrium constant for the complex coming apart. Read a high Kd as weaker binding. As a reminder, the koff is the rate constant with which the complex falls apart. Broadly, the kon is the second-order rate constant of association. Read a low kon as slower complex formation. On to B1, for which, in assay [1], the Kd amounted to 1.81 nM, the off-rate (koff) is 0.000478 s⁻¹ and the on-rate constant (kon) amounted to 264000 M⁻¹ s⁻¹. Further, in assay [2], the dissociation constant (Kd) worked out at 1.94 nM, the off-rate (koff) is 0.000415 s⁻¹ and the kon came to 214000 M⁻¹ s⁻¹.

B2: hucMet27Gv1.3Hinge26C442 (antibody)
light: EIVLTQSPATLSLSPGERATLSCRASESVDSYGNSFIHWYQQKPGQAPRLLIYRASNLESGIPARFSGSGSGTDFTLTISSLEPEDFAVYYCQQSNEEPLTFGQGTKVELKRTVAAPSVFIFPPSDEQLKSGTASVVCLLNNFYPREAKVQWKVDNALQSGNSQESVTEQDSKDSTYSLSSTLTLSKADYEKHKVYACEVTHQGLSSPVTKSFNRGEC
heavy: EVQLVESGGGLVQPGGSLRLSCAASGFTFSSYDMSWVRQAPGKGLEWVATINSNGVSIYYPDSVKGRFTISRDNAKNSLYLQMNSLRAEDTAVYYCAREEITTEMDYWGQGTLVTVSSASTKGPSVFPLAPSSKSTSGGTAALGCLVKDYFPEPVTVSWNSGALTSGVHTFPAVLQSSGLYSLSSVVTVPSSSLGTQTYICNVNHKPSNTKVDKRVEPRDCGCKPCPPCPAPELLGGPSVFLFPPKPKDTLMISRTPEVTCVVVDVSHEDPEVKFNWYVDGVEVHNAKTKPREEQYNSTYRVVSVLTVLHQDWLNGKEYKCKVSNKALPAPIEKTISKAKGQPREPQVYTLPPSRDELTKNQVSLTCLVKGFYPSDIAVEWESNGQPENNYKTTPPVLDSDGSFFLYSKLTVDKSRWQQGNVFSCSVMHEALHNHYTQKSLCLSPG
notes: Hinge#26 and C442 (Cysmab) variant of hucMet27Gv1.3
As to B2, in assay [1], the equilibrium dissociation constant (Kd) amounted to 1.9 nM, the koff worked out at 0.000497 s⁻¹ and the on-rate constant (kon) was determined as 262000 M⁻¹ s⁻¹. Besides, in assay [2], the Kd was 1.57 nM, the koff stood at 0.000496 s⁻¹ and the kon is 317000 M⁻¹ s⁻¹.

B3: hucMet27Gv1.3Hinge28 (antibody)
light: EIVLTQSPATLSLSPGERATLSCRASESVDSYGNSFIHWYQQKPGQAPRLLIYRASNLESGIPARFSGSGSGTDFTLTISSLEPEDFAVYYCQQSNEEPLTFGQGTKVELKRTVAAPSVFIFPPSDEQLKSGTASVVCLLNNFYPREAKVQWKVDNALQSGNSQESVTEQDSKDSTYSLSSTLTLSKADYEKHKVYACEVTHQGLSSPVTKSFNRGEC
heavy: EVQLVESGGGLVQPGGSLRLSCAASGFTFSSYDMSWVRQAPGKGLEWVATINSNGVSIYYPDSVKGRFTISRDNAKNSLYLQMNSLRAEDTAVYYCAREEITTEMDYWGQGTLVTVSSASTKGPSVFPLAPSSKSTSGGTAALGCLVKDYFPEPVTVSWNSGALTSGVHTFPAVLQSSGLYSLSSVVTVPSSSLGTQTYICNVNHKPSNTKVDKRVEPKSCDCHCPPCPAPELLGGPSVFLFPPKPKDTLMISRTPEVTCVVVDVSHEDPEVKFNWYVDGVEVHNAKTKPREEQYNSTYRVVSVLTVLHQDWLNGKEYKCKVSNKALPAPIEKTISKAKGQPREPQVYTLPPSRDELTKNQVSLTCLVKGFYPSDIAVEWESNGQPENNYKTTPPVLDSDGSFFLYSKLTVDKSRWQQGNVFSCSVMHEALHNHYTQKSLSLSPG
notes: Hinge#28 variant of hucMet27Gv1.3
In the case of B3, in assay [1], the dissociation constant (Kd) came out at 1.96 nM, the off-rate (koff) is 0.000451 s⁻¹ and the kon turned out to be 230000 M⁻¹ s⁻¹. In assay [2], this molecule registered a Kd of 1.68 nM, a koff of 0.000564 s⁻¹ and a kon of 336000 M⁻¹ s⁻¹.

B4: hucMet27Gv1.3HingeIgG2S127C (antibody)
light: EIVLTQSPATLSLSPGERATLSCRASESVDSYGNSFIHWYQQKPGQAPRLLIYRASNLESGIPARFSGSGSGTDFTLTISSLEPEDFAVYYCQQSNEEPLTFGQGTKVELKRTVAAPSVFIFPPSDEQLKSGTASVVCLLNNFYPREAKVQWKVDNALQSGNSQESVTEQDSKDSTYSLSSTLTLSKADYEKHKVYACEVTHQGLSSPVTKSFNRGEC
heavy: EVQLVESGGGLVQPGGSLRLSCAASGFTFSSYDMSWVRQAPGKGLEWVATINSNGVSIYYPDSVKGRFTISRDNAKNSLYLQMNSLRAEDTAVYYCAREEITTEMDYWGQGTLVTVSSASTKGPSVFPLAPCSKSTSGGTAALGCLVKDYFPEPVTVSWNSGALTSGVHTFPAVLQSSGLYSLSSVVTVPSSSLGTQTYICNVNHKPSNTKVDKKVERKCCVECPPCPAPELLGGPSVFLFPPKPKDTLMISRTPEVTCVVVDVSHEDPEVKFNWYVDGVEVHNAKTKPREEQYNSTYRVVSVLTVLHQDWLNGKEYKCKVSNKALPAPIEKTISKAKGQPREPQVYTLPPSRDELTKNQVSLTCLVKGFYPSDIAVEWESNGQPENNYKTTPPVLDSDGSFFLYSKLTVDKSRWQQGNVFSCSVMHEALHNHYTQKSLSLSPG
With B4, in assay [1], the Kd stood at 1.67 nM, the dissociation rate constant (koff) was determined as 0.000436 s⁻¹ and the kon was determined as 235000 M⁻¹ s⁻¹. In assay [2], the Kd stood at 1.47 nM, the off-rate (koff) amounted to 0.00045 s⁻¹ and the kon was 307000 M⁻¹ s⁻¹.

B5: hucMet27Gv1.2 (antibody, human IgG1, kappa, V domains shown)
VH: EVQLVESGGGLVQPGGSLRLSCAASGFTFSSYDMSWVRQAPGKGLELVATINSNGVSIYYPDSVKGRFTISRDIAKNSLYLQMNSLRAEDTAVYYCAREEITTEMDYWGQGTLVTVSS
VL: EIVLTQSPATLSLSPGERATLSCRASESVDSYGNSFIHWYQQKPGQAPRLLIYRASNLESGIPARFSGSGSGTDFTLTISSLEPEDFAVYYCQQSNEEPLTFGQGTKVELKR
notes: CDR-grafted cMET-27 with backmutations only in the VH domain (W47L, S49A, N73I); also called v1.2 (CDR-grafted)
On to B5, for which, in assay [1], the equilibrium dissociation constant (Kd) is 0.941 nM, the koff came out at 0.000154 s⁻¹ and the association rate constant (kon) came to 266000 M⁻¹ s⁻¹. Further, in assay [2], the affinity, expressed as Kd, was 0.614 nM; the koff is 0.000148 s⁻¹; the kon is 241000 M⁻¹ s⁻¹.

B6: hucMet27Gv1.3C442 (antibody)
light: EIVLTQSPATLSLSPGERATLSCRASESVDSYGNSFIHWYQQKPGQAPRLLIYRASNLESGIPARFSGSGSGTDFTLTISSLEPEDFAVYYCQQSNEEPLTFGQGTKVELKRTVAAPSVFIFPPSDEQLKSGTASVVCLLNNFYPREAKVQWKVDNALQSGNSQESVTEQDSKDSTYSLSSTLTLSKADYEKHKVYACEVTHQGLSSPVTKSFNRGEC
heavy: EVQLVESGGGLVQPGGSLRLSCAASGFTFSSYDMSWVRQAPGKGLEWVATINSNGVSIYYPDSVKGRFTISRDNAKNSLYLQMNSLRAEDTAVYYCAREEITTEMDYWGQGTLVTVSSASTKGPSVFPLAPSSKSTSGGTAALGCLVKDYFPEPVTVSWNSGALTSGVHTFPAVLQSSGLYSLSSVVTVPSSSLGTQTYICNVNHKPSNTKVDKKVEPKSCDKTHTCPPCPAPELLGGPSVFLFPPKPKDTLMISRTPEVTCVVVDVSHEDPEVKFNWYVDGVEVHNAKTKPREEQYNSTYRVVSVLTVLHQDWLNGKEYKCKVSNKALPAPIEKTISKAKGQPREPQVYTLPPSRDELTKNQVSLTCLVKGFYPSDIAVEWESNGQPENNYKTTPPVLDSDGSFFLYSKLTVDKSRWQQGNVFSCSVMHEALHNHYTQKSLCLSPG
notes: Cysteine-engineered (C442, Cysmab) form of hucMet27Gv1.3, tested unconjugated
For B6, in assay [1], the Kd amounted to 1.64 nM, the koff was determined as 0.000447 s⁻¹ and the kon came out at 272000 M⁻¹ s⁻¹. In assay [2], this molecule displayed a Kd of 1.6 nM, a koff of 0.000439 s⁻¹ and a kon of 273000 M⁻¹ s⁻¹.

B7: hucMet22Gv2.2 (antibody, V domains shown)
VH: QVQLVQSGAEVKKPGASVKVSCKASGYTFTDYNMDWVRQAPGQRLEWIGDLNPNNGATIYNQKFKGRATLTVDMSASTAYMELSSLRSEDTAVYYCARGNYYGNYYYLMDYWGQGTSVTVSS
VL: DIQMTQSPSSLSASVGDRVTITCRASENIYSTLAWYQQKPGKAPKLLVYAATNLADGVPSRFSGSGSGTDYTLTISSLQPEDFATYYCQHFWGTPYTFGQGTKVEIKR
notes: also called humanized (CDR-grafted) cMET-22
As for B7, in assay [1], binding was put at a Kd of 4.77 nM, the koff was found to be 0.00213 s⁻¹ and the on-rate (kon) came out at 445000 M⁻¹ s⁻¹. In assay [2], this molecule had an equilibrium dissociation constant (Kd) of 3.62 nM, a koff of 0.00128 s⁻¹ and a kon of 353000 M⁻¹ s⁻¹.

B8: hucMet27v1.2 (antibody, human IgG1, kappa, V domains shown)
VH: EVQLVESGGGLVQPGGSLRLSCAASGFTFSSYDMSWVRQTPGKGLELVATINSNGVSIYYPDSVKGRFTISRDIAKNTLYLQMSSLRAEDTAMYYCAREEITTEMDYWGQGTSVTVSS
VL: DIVLTQSPASLAVSPGQRATISCRASESVDSYGNSFIHWYQQKPGQPPKLLIYRASNLESGIPARFSGSGSRTDFTLTINPVEANDVATYYCQQSNEEPLTFGGGTKLELKR
notes: also called hu247.27.16 v1.2 (resurfaced); hu247.27.16 LC1.2 / HC1.0
B8: in assay [1], the Kd came to 0.989 nM, the koff was found to be 0.000233 s⁻¹ and the kon was found to be 236000 M⁻¹ s⁻¹. In assay [2], this molecule gave a dissociation constant Kd of 0.928 nM, a koff of 0.000196 s⁻¹ and a kon of 212000 M⁻¹ s⁻¹.
